B1: 9P3: hybridoma derived anti-cKIT antibody; VH SEQ ID NO.9, VL SEQ ID NO.18 (antibody, V domains shown)
VH: EVRLVESEGGLVQPRSSMKLSCTASGFTFSDYYMAWVRQVPEKGLEWVANINYDGSSTYYLDSLKSRFIISRDNAKNILYLQMSSLKSEDTATYYCARGDYYGTTYWYFDVWGTGTTVTVSS
VL: DIQMTQTTSSLSASLGDRVTISCRASQDISNYLNWYQQKPDGTVKLLIYYTSRLQSGVPSRFSGSGSGTDYSLTISNLEQEDIATYFCQQGKKLWSFGGGTKLEIKR

Experiments:
Uke-1 cells = experiment: ADCC activity in vitro (Calcein release, NK3.3 effector cells); type: cell-based, human; settings: effector to target ratio 20 to 1
Description: In brief, Uke-1 cells were stained with Calcein acetoxy-methyl ester (Calcein-AM; Sigma-Aldrich catalog #17783-5MG, St. Louis, Mo.), washed twice, pipetted into a 96-well microtiterplate (96 well, U-bottomed, clear plastic; Corning Costar, catalog #650 160, Tewksbury, Mass.) at a concentration of 5000 cells per well and pre-incubated for 10 min with a serial dilution of the above mentioned antibodies and proteins (from 50,000 to 0.003 μg per ml) before adding the effector NK3.3 cells for 1 hour in an effector to target ratio of 20 to 1. In order to calculate the antibody specific lysis of the target cells, a parallel incubation of target cells only without antibody or effector cells served as a baseline and negative control, whereas the positive control or maximal lysis or hundred percent specific lysis was determined by lysis of target cells only with a 1% Triton-X 100 solution. […] Following a co-incubation of target and effector cells, the microtiterplate was centrifuged and an aliquot of the supernatant fluid was transferred to another microtiterplate (96 well, flat-bottomed, black with clear bottom; Corning Costar, catalog #3904, Tewksbury, Mass.) and the concentration of free Calcein in solution was determined with a fluorescence counter (Victor 3® multilabel counter, Perkin Elmer, Waltham, Mass.).

[1] = system: GIST T1 subcutaneous tumor xenograft; experiment: Efficacy of murine 9P3 ADCs, MCC-DM1 vs SPDB-DM4; type: in vivo, mouse; settings: single i.v. dose 10 mg/kg, unconjugated antibody
[2] = molecular target: T1, cKIT extra-cellular domain (SEQ ID NO:160) (Homo sapiens, UniProt P10721); experiment: Epitope mapping by deuterium exchange mass spectrometry (HDx-MS); type: binding; settings: Region 1 residues 109-119, Region 2 residues 185-196
T1 construct: LENGTH: 503 amino acids; made in house; host or cells: HEK293 derived cell lines (293FS), transient transfection
T1 sequence (P10721 with tags, fused parts or gaps isoform P10721-2): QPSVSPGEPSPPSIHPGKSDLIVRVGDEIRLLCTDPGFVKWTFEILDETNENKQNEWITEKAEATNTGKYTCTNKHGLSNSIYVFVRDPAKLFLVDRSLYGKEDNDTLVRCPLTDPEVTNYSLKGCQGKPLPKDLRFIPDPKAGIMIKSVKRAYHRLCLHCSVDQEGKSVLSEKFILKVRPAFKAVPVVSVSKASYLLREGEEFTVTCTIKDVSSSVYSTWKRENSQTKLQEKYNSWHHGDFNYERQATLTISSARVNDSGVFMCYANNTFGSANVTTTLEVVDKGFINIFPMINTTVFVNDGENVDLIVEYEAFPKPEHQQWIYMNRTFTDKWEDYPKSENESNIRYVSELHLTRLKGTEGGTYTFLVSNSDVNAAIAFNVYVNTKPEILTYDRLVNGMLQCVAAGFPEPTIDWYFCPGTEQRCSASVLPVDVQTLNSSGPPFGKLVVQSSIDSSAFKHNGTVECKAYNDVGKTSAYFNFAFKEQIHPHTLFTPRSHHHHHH
Description: In these experiments, the deuterium uptake of cKIT extra-cellular domain (SEQ ID NO:160, see below) was measured in the absence and presence of a therapeutic mAb, 9P3. Regions in cKIT that show a decrease in deuterium uptake upon binding of the antibody are likely to be involved in the epitope; however, due to the nature of the measurement it is also possible to detect changes remote from the direct binding site (allosteric effects). Usually, the regions that have the greatest amount of protection are involved in direct binding although this may not always be the case. In order to delineate direct binding events from allosteric effects orthogonal measurements (e. g. X-ray crystallography, alanine mutagenesis) are necessary.
The cKIT epitope mapping experiments are performed on a Waters Synapt® G2 HDx-MS platform, which includes LEAP® robot system, nanoACQUITY® UPLC System, and Synapt® G2 mass spectrometer. In this method, triplicate control experiments are carried out as follows. 300 pmol (1.4 mg/ml) of cKIT antigen is diluted into 110 ul of 95% deuterated PBS buffer (pH 7.4) and incubates at room temperature on a bench rotator for 25 minutes (% D=85.5%). Deuterium exchange is quenched by 1:1 dilution with cold quench buffer (6M Urea and 1M TCEP pH=2.5) on ice for 5 min. […] The sample is analyzed using the same on-line pepsin digestion/LC-MS setup as the control experiment.

Molecule | ADCC (Uke-1 cells) | antitumor efficacy [1] | epitope (regions protected from deuterium exchange) [2]
MabCampath [reference compound] | mediated ADCC killing of the target cells | – | –
B1 | – | Neither the control non-specific IgG1 ADCs nor the unconjugated 9P3 were efficacious | discontinuous epitope that is remote from the SCF binding sites
